Source: patent US11292821B2, “Peptides and combination of peptides for use in immunotherapy against lung cancer, including NSCLC, SCLC and other cancers” (Immatics Biotechnologies GmbH, priority 2017, dated 2022)

Experiments:
[1] = target: HLA-B*07 (Homo sapiens, UniProt P01889); test: MHC binding assay (UV-ligand exchange, β2m ELISA)
Text: Candidate peptides for T cell based therapies according to the present invention were further tested for their MHC binding capacity (affinity). The individual peptide-MHC complexes were produced by UV-ligand exchange, where a UV-sensitive peptide is cleaved upon UV-irradiation, and exchanged with the peptide of interest as analyzed. Only peptide candidates that can effectively bind and stabilize the peptide-receptive MHC molecules prevent dissociation of the MHC complexes. To determine the yield of the exchange reaction, an ELISA was performed based on the detection of the light chain (β2m) of stabilized MHC complexes. The assay was performed as generally described in Rodenko et al. (Rodenko et al., 2006).
96 well MAXISorp plates (NUNC) were coated over night with 2 ug/ml streptavidin in PBS at room temperature, washed 4× and blocked for 1 h at 37° C. in 2% BSA containing blocking buffer. […] Peptide-MHC monomers of the UV-exchange reaction were diluted 100-fold in blocking buffer. Samples were incubated for 1 h at 37° C., washed four times, incubated with 2 ug/ml HRP conjugated anti-β2m for 1h at 37° C., washed again and detected with TMB solution that is stopped with […]. Absorption was measured at 450 nm. Candidate peptides that show a high exchange yield (preferably higher than 50%, most preferred higher than 75%) are generally preferred for a generation and production of antibodies or fragments thereof, and/or T cell receptors or fragments thereof, as they show sufficient avidity to the MHC molecules and prevent dissociation of the MHC complexes.

[2] = system: CD8+ T cells; test: In vitro T-cell priming assay with aAPCs (in vitro immunogenicity for MHC class I presented peptides); format: cell-based, human; conditions: in vitro immunogenicity, HLA B*07

Row | Substance | Peptide exchange (peptide exchange yield, MHC class I binding score) [1] | Wells positive [%] [2]
1 | 220 (SPSVSQLSVL; listed as Homo sapiens) [compound 220] | “++++” (>75% = ++++) | “++++” (>=70% = ++++)
2 | 221 (VPDVAQFVL; listed as Homo sapiens) [compound 221] | “++++” (>75% = ++++) | “++” (20%-49% = ++)
3 | 222 (NPFYPEVEL; listed as Homo sapiens) [compound 222] | “+++” (>50 = +++) | “+” (<20% = +)
4 | 223 (YPKDIYSSF; listed as Homo sapiens) [compound 223] | “++++” (>75% = ++++) | “++” (20%-49% = ++)
5 | 224 (GPQPWHAAL; listed as Homo sapiens) [compound 224] | “++++” (>75% = ++++) | “++” (20%-49% = ++)
6 | 225 (LPFDGPGGIL; listed as Homo sapiens) [compound 225] | “++++” (>75% = ++++) | “++++” (>=70% = ++++)
7 | 236 (RVRGGEDGDRAL; listed as Homo sapiens) [compound 236] | “++++” (>75% = ++++) | 
8 | 238 (KPGPPWAAF; listed as Homo sapiens) [compound 238] | “++++” (>75% = ++++) | 
9 | 239 (YVPSASLFML; listed as Homo sapiens) [compound 239] | “++++” (>75% = ++++) | 
10 | 240 (SPREVTTVL; listed as Homo sapiens) [compound 240] | “++++” (>75% = ++++) | 
11 | 243 (RPIENRILIL; listed as Homo sapiens) [compound 243] | “++++” (>75% = ++++) | 
12 | 246 (TPLPAVIVL; listed as Homo sapiens) [compound 246] | “++++” (>75% = ++++) | 
13 | 247 (RALLARLLL; listed as Homo sapiens) [compound 247] | “+++” (>50 = +++) | 
14 | 251 (VPRSSGQTV; listed as Homo sapiens) [compound 251] | “++++” (>75% = ++++) | 
15 | 253 (RVIDAVRFTL; listed as Homo sapiens) [compound 253] | “+++” (>50 = +++) | 
16 | 254 (NPFPHLITL; listed as Homo sapiens) [compound 254] | “++++” (>75% = ++++) | 
17 | 255 (MPLLENLYL; listed as Homo sapiens) [compound 255] | “++++” (>75% = ++++) | 

Row | Substance | Peptide exchange (peptide exchange yield, MHC class I binding score) [1] | Wells positive [%] [2]
18 | 256 (SPRVPSIEL; listed as Homo sapiens) [compound 256] | “++++” (>75% = ++++) | 
19 | 257 (LPRIPFADV; listed as Homo sapiens) [compound 257] | “++++” (>75% = ++++) | 
20 | 258 (LPRGPLASL; listed as Homo sapiens) [compound 258] | “++++” (>75% = ++++) | 
21 | 259 (RPPAAGLRGISL; listed as Homo sapiens) [compound 259] | “++++” (>75% = ++++) | 
22 | 260 (YPQHPGLNA; listed as Homo sapiens) [compound 260] | “+++” (>50 = +++) | 
23 | 261 (APSARVGVC; listed as Homo sapiens) [compound 261] | “+++” (>50 = +++) | 
24 | 262 (SAYPQRLEI; listed as Homo sapiens) [compound 262] | “+” (>10% = +) | 
25 | 263 (HPAPYGDLL; listed as Homo sapiens) [compound 263] | “++++” (>75% = ++++) | 
26 | 265 (SPRQPPRLV; listed as Homo sapiens) [compound 265] | “++++” (>75% = ++++) | 
27 | 267 (HPELVNHIVF; listed as Homo sapiens) [compound 267] | “++” (>20% = ++) | 
28 | 268 (YPLFRGINL; listed as Homo sapiens) [compound 268] | “++++” (>75% = ++++) | 
29 | 269 (APRAPRLML; listed as Homo sapiens) [compound 269] | “++++” (>75% = ++++) | 
30 | 270 (APGPRFLVT; listed as Homo sapiens) [compound 270] | “++++” (>75% = ++++) | 
31 | 271 (MPLPWSLALP; listed as Homo sapiens) [compound 271] | “+++” (>50 = +++) | 
32 | 272 (MPLPWSLALPL; listed as Homo sapiens) [compound 272] | “++++” (>75% = ++++) | 
33 | 273 (MPLLWLRGF; listed as Homo sapiens) [compound 273] | “++” (>20% = ++) | 
34 | 275 (APHPPLSVV; listed as Homo sapiens) [compound 275] | “+++” (>50 = +++) | 

The next lines start with results.

Row | Peptide exchange (peptide exchange yield, MHC class I binding score) [1] | Substance | Wells positive [%] [2]
35 | “+++” (>50 = +++) | 276 (LPRAGGAFL; listed as Homo sapiens) [compound 276] | 
36 | “++” (>20% = ++) | 278 (HPMIDINGIIVF; listed as Homo sapiens) [compound 278] | 
37 | “+++” (>50 = +++) | 279 (SPARASPAL; listed as Homo sapiens) [compound 279] | 
38 | “+++” (>50 = +++) | 280 (VPISEEGTPVL; listed as Homo sapiens) [compound 280] | 
39 | “++++” (>75% = ++++) | 281 (RPRAPVTPA; listed as Homo sapiens) [compound 281] | 
40 | “+++” (>50 = +++) | 282 (MPQIETRVIL; listed as Homo sapiens) [compound 282] | 
41 | “++++” (>75% = ++++) | 283 (RPHSLSSEL; listed as Homo sapiens) [compound 283] | 
42 | “++” (>20% = ++) | 284 (FPVTSIFHTF; listed as Homo sapiens) [compound 284] | 
43 | “++++” (>75% = ++++) | 286 (VPTLRSEL; listed as Homo sapiens) [compound 286] | 
44 | “+++” (>50 = +++) | 287 (APREEQQRSL; listed as Homo sapiens) [compound 287] | 
45 | “++” (>20% = ++) | 288 (FPQKFIDLL; listed as Homo sapiens) [compound 288] | 
46 | “++++” (>75% = ++++) | 289 (VPENHSVAL; listed as Homo sapiens) [compound 289] | 
47 | “++++” (>75% = ++++) | 290 (APYRPPDISL; listed as Homo sapiens) [compound 290] | 
48 | “++++” (>75% = ++++) | 291 (SPQRLRGLL; listed as Homo sapiens) [compound 291] | 
49 | “++++” (>75% = ++++) | 295 (KPEGTRIAV; listed as Homo sapiens) [compound 295] | 
50 | “+++” (>50 = +++) | 459 (RPMQQARAQL; listed as Homo sapiens) [compound 459] | 
51 | “++++” (>75% = ++++) | 464 (YPRPGTPAA; listed as Homo sapiens) [compound 464] | 
52 | “++++” (>75% = ++++) | 465 (VPRPIFSQL; listed as Homo sapiens) [compound 465] | 
53 | “++++” (>75% = ++++) | 466 (APYKSVTSL; listed as Homo sapiens) [compound 466] | 
54 | “++++” (>75% = ++++) | 467 (KPFSSFTSM; listed as Homo sapiens) [compound 467] | 
55 | “++++” (>75% = ++++) | 468 (SPMYGQAGL; listed as Homo sapiens) [compound 468] | 
56 | “++” (>20% = ++) | 469 (YPENGVVQM; listed as Homo sapiens) [compound 469] | 
57 | “++++” (>75% = ++++) | 470 (SPNSYFRVL; listed as Homo sapiens) [compound 470] | 
58 | “++++” (>75% = ++++) | 471 (KPRPDVTNEL; listed as Homo sapiens) [compound 471] | 
59 | “++++” (>75% = ++++) | 472 (NPRATDAQL; listed as Homo sapiens) [compound 472] | 
60 | “++++” (>75% = ++++) | 475 (RPHKPGLYL; listed as Homo sapiens) [compound 475] | 
